Measured values reported in patent US20210061922A1 (CITY OF HOPE, published 2021).

Target: T1, CD16a (UniProt P08637 17-208, limits assumed)
T1 construct: also called Fc receptor CD16
Test: surface plasmon resonance traces (FIG. 10D)

T1 sequence (P08637 17-208 limits assumed): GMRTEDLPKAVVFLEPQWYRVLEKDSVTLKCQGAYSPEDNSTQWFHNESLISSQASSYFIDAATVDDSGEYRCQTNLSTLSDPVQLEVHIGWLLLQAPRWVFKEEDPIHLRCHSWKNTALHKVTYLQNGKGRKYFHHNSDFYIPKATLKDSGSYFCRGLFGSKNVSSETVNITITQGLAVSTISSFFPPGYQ

B1: Anti-CD16 nanobody (VHH)
VHH: EVQLTESGGEDVQAGGSLRLSCSASGLTFSSYNMGWFRRAPGKEREFVASITWSGRDTFYADSVKGRFTISRDNAKNTVYLQMSSLKPEDTATYYCAANPWPVAAPRSGTYWGEGTQVTV
notes: also called αCD16; anti-CD16 single domain antibody
- binding result: binds
